These results are taken from patent US20110110934A1.

This experiment deals with mG-CSF (recombinant murine G-CSF, R&D Systems Cat #414-CS) (mouse) (UniProt P09920). Briefly: cell-based or functional assay.
Sequence of UniProt P09920 (P09920 31-208 limits assumed): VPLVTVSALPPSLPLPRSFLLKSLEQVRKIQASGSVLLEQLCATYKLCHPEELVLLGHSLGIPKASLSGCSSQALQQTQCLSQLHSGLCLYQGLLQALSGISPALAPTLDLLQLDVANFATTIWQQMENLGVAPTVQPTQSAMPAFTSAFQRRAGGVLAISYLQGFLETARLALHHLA

Take Anti-G-CSF (MAB414) (antibody): the inhibition of mG-CSF proliferation of hG-CSFR BaF3 cells (MTS reduction, 48 hours), IC50 came to 0.01 nM.

For “soluble hG-CSFR-Fc protein (from UniProt Q99062 25-627) (Fc fusion)”, the inhibition of mG-CSF proliferation of hG-CSFR BaF3 cells (MTS reduction, 48 hours), IC50 amounted to 0.022 nM.
